Measurements: PMC4703882

System: RAD51 wild type (Homo sapiens)
Experiment: EMSA
Settings: 1 mM ATP, 2 mM Ca2+; saturated at 0.8 uM; EMSA: 50 mM Tris-HCl pH 7.5, 100 mM NaCl, 2 mM CaCl2, 1 mM ATP, 1 mM DTT, 5 nM DNA, 5 min at 37 C; 0.8% agarose in 1x TB (dsDNA) or 5% native PAGE in 0.5x TB …

Substance ds-66 bp-AF532 has a K half of 300 nM.
